In test [1] the target is SpyCatcher-mi3 nanoparticle. The test can be described thus: SDS-PAGE of the covalent SpyTag-SpyCatcher conjugate + dynamic light scattering; cPfCSP and SpyCatcher-mi3 mixed and allowed to react overnight at 4°C; conjugate band at ~65 kDa; diameter 48 nm against 34 nm. The note with it: scale: cPfCSP molecules per SpyCatcher-mi3 nanoparticle.
The target in test [2] is T1, full-length recombinant PfCSP (Plasmodium falciparum, strain of the …, UniProt Q7K740).
T1 construct: Plasmodium falciparum circumsporozoite protein; source: E. coli, recombinant, provided by Gennova (Pune, India)
Briefly: ELISA; competition: 5 ng/mL mAb 2A10 pre-incubated with 0.5, 5 or 50 μg/mL of T1 or B3 peptide without cysteines, then allowed to bind to plates coated with PfCSP; signal normalised to that without peptide. The note with it: both partners purified.

In test [3] the target is T2, B3 synthetic peptide, (NANP)3 (without cysteine residues) (Plasmodium falciparum, synthetic peptide).
T2 construct: three NANP repeats of the major repeat region of Plasmodium falciparum circumsporozoite protein; written out from the printed formula (NANP)3; source: synthetic peptide
T2 chain: NANPNANPNANP
The description is as above. To be noted: both partners purified.

In test [4] the target is T3, T1 synthetic peptide (without cysteine residues) (Plasmodium falciparum, synthetic peptide).
T3 construct: source: synthetic peptide
T3 chain: DPNANPNVDPNANPNV
The test is described as above. To be noted: both partners purified.

T1 sequence (Q7K740 19-374): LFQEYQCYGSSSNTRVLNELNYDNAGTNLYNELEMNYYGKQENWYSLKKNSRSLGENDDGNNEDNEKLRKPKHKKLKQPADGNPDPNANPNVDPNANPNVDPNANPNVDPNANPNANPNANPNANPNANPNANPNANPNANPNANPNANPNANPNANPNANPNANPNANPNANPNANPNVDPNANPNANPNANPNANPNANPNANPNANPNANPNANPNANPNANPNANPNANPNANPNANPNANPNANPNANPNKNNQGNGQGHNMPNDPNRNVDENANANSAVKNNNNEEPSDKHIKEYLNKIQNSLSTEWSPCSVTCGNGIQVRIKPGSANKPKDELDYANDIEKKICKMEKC

Consider “chimeric PfCSP (cPfCSP) with C-terminal GPGPG spacer, SpyTag and 6x His-tag (from UniProt Q7K740 82-104; Q7K740 311-340; Q7K740 341-397)”, for which, in test [1], the stoichiometry N was found to be 3.2.

B1: 2A10 antibody (antibody, V domains shown)
VH: QIQLVQSGPELKKPGETVKISCKASGYTFTNYGINWVKQAPGKGLKWMGWINTITEEPTFAEEFTGRFAFSLETSASTAYLQINNLKNEDTATYFCARGSEFGRLVYWGQGASVTVSS
VL: DIQMTQTTSSLSASLGDRVTISCSASQGISNYLNWYQQKPDGTVKLLIFYTSTLYSGVPSRFSGSGSGTDYSLTISNLEPEDIATYYCQQYSRFPYVFGGGTKLEIK
notes: heavy chain gene cloned into the TGEX-HC vector; light chain gene cloned into the TGEX-LC vector; treated as one molecule; also called mAb 2A10; monoclonal antibody 2A10; source: HEK293F, transfected, purified (MabSelect SuRe)
For B1, the binding result in test [2], in test [3] and in test [4] was “binds” in each case.

The values above are taken from paper PMC10354751 (Bioengineering & Translational Medicine, 2023).
